Test results as given in PMC4142084 (Molecular cell, 2014).
Changes are numbered by the printed parent chain.

B1: purified recombinant FLAG-6PGD (6-phosphogluconate dehydrogenase) WT (enzyme, human)
chain: MAQADIALIGLAVMGQNLILNMNDHGFVVCAFNRTVSKVDDFLANEAKGTKVVGAQSLKEMVSKLKKPRRIILLVKAGQAVDDFIEKLVPLLDTGDIIIDGGNSEYRDTTRRCRDLKAKGILFVGSGVSGGEEGARYGPSLMPGGNKEAWPHIKTIFQGIAAKVGTGEPCCDWVGDEGAGHFVKMVHNGIEYGDMQLICEAYHLMKDVLGMAQDEMAQAFEDWNKTELDSFLIEITANILKFQDTDGKHLLPKIRDSAGQKGTGKWTAISALEYGVPVTLIGEAVFARCLSSLKDERIQASKKLKGPQKFQFDGDKKSFLEDIRKALYASKIISYAQGFMLLRQAATEFGWTLNYGGIALMWRGGCIIRSVFLGKIKDAFDRNPELQNLLLDDFFKSAVENCQDSWRRAVSTGVQAGIPMPCFTTALSFYDGYRHEMLPASLIQAQRDYFGAHTYELLAKPGQFIHTNWTGHGGTVSSSSYNA
modifications: background lysine acetylation; acetylation at K76 and K294 increased after incubation with lysates of NAM+TSA-treated H1299 cells
B2: purified recombinant FLAG-6PGD K76R (enzyme, human)
chain: B1 chain with K76R
modifications: acetylation at K294 increased after incubation with lysates of NAM+TSA-treated H1299 cells

Target: the molecule itself
Assay: cross-linking

Protein	stoichiometry N
B1	2
B2	2
